Results: patent US10494657B2, “In vitro production of cyclic peptides” (The University Court of the University of Aberdeen, priority 2012, dated 2019)
Changes are numbered by the printed parent chain. Names and notes keep the numbering of the source.

B1: PatGmac K594D (protein)
chain: GEDEIESAGVSASEVESSATKQKVALHPHDLDERIPGLADLHNQTLGDPQITIVIIDGDPDYTLSCFEGAEVSKVFPYWHEPAEPITPEDYAAFQSIRDQGLDGKEKEEALEAVIPDTKDRIVLNDHACHVTSTIVGQEHSPVFGIAPNCRVINMPQDAVIRGNYDDVMSPLNLARAIDLALELGANIIHCAFCRPTQTSEGEEILVQAIKKCQDNNVLIVSPTGNNSNESWCLPAVLPGTLAVGAAKVDGTPCHFSNWGGNNTKEGILAPGEEILGAQPCTEEPVRLTGTSMAAPVMTGISALLMSLQVQQGKPVDAEAVRTALLKTAIPCDPEVVEEPERCLRGFVNIPGAMKVLFGQ
B2: PatGmac K598D (protein)
chain: B1 chain with D103K, K107D
B3: PatGmac R589D K594D K598D (protein)
chain: B1 chain with R98D, K107D
B4: PatGmacΔ2 (protein)
chain: GEDEIESAGVSASEVESSATKQKVALHPHDLDERIPGLADLHNQTLGDPQITIVIIDGDPDYTLSCFEGAEVSKVFPYWHEPAEPILNDHACHVTSTIVGQEHSPVFGIAPNCRVINMPQDAVIRGNYDDVMSPLNLARAIDLALELGANIIHCAFCRPTQTSEGEEILVQAIKKCQDNNVLIVSPTGNNSNESWCLPAVLPGTLAVGAAKVDGTPCHFSNWGGNNTKEGILAPGEEILGAQPCTEEPVRLTGTSMAAPVMTGISALLMSLQVQQGKPVDAEAVRTALLKTAIPCDPEVVEEPERCLRGFVNIPGAMKVLFGQ
B5: PatGmacΔ1 (protein)
chain: GEDEIESAGVSASEVESSATKQKVALHPHDLDERIPGLADLHNQTLGDPQITIVIIDGDPDYTLSCFEGAEVSKVFPYWHEPAEPITKDRIVLNDHACHVTSTIVGQEHSPVFGIAPNCRVINMPQDAVIRGNYDDVMSPLNLARAIDLALELGANIIHCAFCRPTQTSEGEEILVQAIKKCQDNNVLIVSPTGNNSNESWCLPAVLPGTLAVGAAKVDGTPCHFSNWGGNNTKEGILAPGEEILGAQPCTEEPVRLTGTSMAAPVMTGISALLMSLQVQQGKPVDAEAVRTALLKTAIPCDPEVVEEPERCLRGFVNIPGAMKVLFGQ
B6: PatGmac: macrocyclase domain of PatG, residues 492-851 (protein)
chain: B1 chain with D103K
B7: H618A: site-directed catalytic triad mutant of PatGmac (inactive mutant) (protein)
chain: B1 chain with D103K, H127A

tested on: […]; assay: Macrocyclization reaction, final product ratios by LC-ESI MS ion counts; type: biochemical; conditions: not given

| Molecule | substrate consumption rate relative to native protein |
| --- | --- |
| B1 | approximately the rate of native protein |
| B2 | approximately the rate of native protein |
| B3 | substantially slower |
| B4 | approximately the rate of native protein |
| B5 | approximately the rate of native protein |

tested on: […]; assay: Macrocyclization of substrate with modified recognition sequence (Asp to Arg); type: biochemical; conditions: not given
Procedure: (§1) For other macrocyclization reactions, 100 μM peptide (e.g. VGAGIGFPAYDG (SEQ ID NO: 68), VGAGIGFPAYRG (SEQ ID NO: 69), or GVAGIGFPAYRG (SEQ ID NO: 84)) was incubated with 20 μM enzyme in a range of buffers for 24 h at 37° C. (see FIGS. 1 to 3).
(§2) PatGmac K598D produced cyclo[VGAGIGFP] with only 8% linear product, at a rate over an order of magnitude faster than wild-type PatGmac with VGAGIGFPAYDG (SEQ ID NO: 68) (FIGS. 2 and 3).

| Molecule | ratio of macrocyclized and linear products with VGAGIGFPAYRG | reaction rate with VGAGIGFPAYRG | linear product [%] |
| --- | --- | --- | --- |
| B6 | equal amounts of macrocyclized and linear products | reacted extremely slowly | – |
| B1 | equal amounts of macrocyclized and linear products | reacted extremely slowly | – |
| B2 | – | over an order of magnitude faster than wild-type PatGmac with […] | 8 |
| B3 | equal amounts of macrocyclized and linear products | reacted extremely slowly | – |

tested on: […]; assay: Macrocyclization reaction, final product ratios by LC-ESI MS ion counts; type: biochemical; conditions: not given; remark: another data set of the same source
Procedure: For macrocyclization reactions comparing final product ratios after substrate depletion, 100 μM peptide (VGAGIGFPAYDG) (SEQ ID NO: 68) was incubated with 50 μM enzyme in 150 mM NaCl, 10 mM HEPES pH 8, 1 mM TCEP for 120 h at 37° C. Samples were analyzed by ESI or MALDI MS (LCT, Micromass or 4800 MALDI TOF/TOF Analyser, ABSciex).
LC-MS was performed using a Phenomenex Sunfire C18 column (4.6 mm×150 mm). Solvent A was H2O containing 0.1% formic acid and solvent B was MeOH containing 0.1% formic acid. Gradient: 0-2 min 10% B; 2-22 min 10% B to 100% B; 22-27 min 100% B; 27-30 min 100% B to 10% B. High resolution mass spectral data were obtained from a Thermo Instruments MS system (LTQ XL/LTQ Orbitrap Discovery) coupled to a Thermo Instruments HPLC system (Accela PDA detector, Accela PDA autosampler and Accela Pump). The following conditions were used: capillary voltage 45 V, capillary temperature 320° C., auxiliary gas flow rate 10-20 arbitrary units, sheath gas flow rate 40-50 arbitrary units, spray voltage 4.5 kV, mass range 100-2000 amu (maximum resolution 30000).
The peptide VGAGIGFPAYDG (SEQ ID NO: 68) was used as a substrate for PatGmac in biochemical assays (FIG. 4C[[c]]). The ratio of macrocyclized to linear product using this substrate peptide was determined by ion counts obtained from liquid chromatography-electrospray ionization mass spectrometry (LC-ESI MS).

| Molecule | product formed (macrocyclized vs linear) |
| --- | --- |
| B6 | only macrocyclized product |
| B7 | no detectable reaction |
| B1 | approximately one third of the product was macrocyclized |
| B2 | only linear VGAGIGFP |
| B3 | only produced linear substrate |
| B4 | only linear VGAGIGFP |
| B5 | only linear VGAGIGFP |

same assay, conditions: 100 μM peptide, 50 μM enzyme, 120 h at 37° C.

| Molecule | Cyclic ion count (%) (M + H = 699) | Linear ion count (%) (M + H = 717) | Unprocessed ion count (%) (M + H = 1123) |
| --- | --- | --- | --- |
| B6 | 100 | 0 | 0 |
| B1 | 29 | 71 | 0 |
| B2 | 0 | 100 | 0 |
| B3 | 0 | 6 | 94 |
| B4 | 0 | >99 | <1 |
| B5 | 0 | 92 | 8 |

tested on: […]; assay: not given; conditions: rates reported to date; cited from earlier work
Target sequence in this assay (as listed by the source): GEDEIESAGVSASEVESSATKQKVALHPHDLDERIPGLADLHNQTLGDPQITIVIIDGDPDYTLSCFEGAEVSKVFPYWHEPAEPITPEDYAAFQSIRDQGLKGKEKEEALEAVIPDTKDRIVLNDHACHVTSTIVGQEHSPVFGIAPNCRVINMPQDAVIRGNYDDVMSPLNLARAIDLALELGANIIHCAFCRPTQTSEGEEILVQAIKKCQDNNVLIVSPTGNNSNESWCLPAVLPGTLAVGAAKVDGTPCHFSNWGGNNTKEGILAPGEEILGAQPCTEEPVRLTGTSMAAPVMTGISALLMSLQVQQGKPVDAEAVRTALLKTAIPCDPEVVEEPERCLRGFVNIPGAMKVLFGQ

| Molecule | turnover rate [per day] |
| --- | --- |
| B6 | ~1 |

tested on: PatGmac; assay: Macrocyclization of substrate peptides by PatGmac; type: biochemical, Prochloron sp.; conditions: not given
Procedure: as §1
The VPAPIPFPAYDG (SEQ ID NO: 85) peptide was chosen to match the residues equivalent to P8-P4′, the eight-residue cassette and four C-terminal residue macrocyclization signature.
Target sequence in this assay (as listed by the source): as above
as §2

| Molecule | macrocyclization of the substrate by PatGmac (rate) |
| --- | --- |
| VGAGIGFPAYRG | an order of magnitude faster than GVAGIGFPAYRG |
| VPAPIPFPAYDG [substrate mimic peptide, prolines mimic heterocycles] | can in fact be macrocyclized by PatGmac (albeit slowly) |

tested on: PatE2/PatE2K; assay: C-terminal cleavage and macrocyclization of heterocyclized, N-terminally cleaved PatE2/PatE2K; type: biochemical; conditions: 100 μM substrate, 20 μM PatGmac, 24 hours at 37° C., 20 mM Bicine pH 8.1, 500 mM NaCl, 5% DMSO
Procedure: The final stage in patellamide production is C-terminal cleavage and macrocyclization. This step is catalyzed by the PatGmac domain. In order to macrocyclize our single cassette we incubated 100 μM heterocyclized (with either PatD or TruD) and N-terminally cleaved PatE2/PatE2K with 20 μM PatGmac for 24 hours at 37° C. in 20 mM Bicine pH 8.1, 500 mM NaCl, 5% DMSO to complete the reaction. Completeness of the reaction was confirmed by LCT-ESI MS (FIG. 16). […] PatGmac is also highly expressed in E. coli with between 200 and 250 mg purified protein obtained per liter of culture. The final macrocycles were purified by HPLC on a C18 peptide column. PatD and TruD heterocyclised macrocycles were subjected to HRMS and their structures confirmed by fragmentation (see FIGS. 19 to 21; Table 3). NMR analysis was carried out on TruD and PatD heterocyclised macrocycles, as shown in FIGS. 20 and 21) (Tables 7 and 8).

Chain of PatE2/PatE2K (as listed by the source): as above

| Molecule | macrocyclized (ion count analysis) [%] |
| --- | --- |
| B6 | 100 |

tested on: […]; assay: Macrocyclization reaction rate in different buffers (LC-MS); type: biochemical; conditions: 500 mM NaCl and 5% DMSO at pH 8
Procedure: as §1
PatGmac is a slow enzyme; turnover rates reported to date are ˜1 per day (Lee, J., McIntosh, J., Hathaway, B. J. & Schmidt, E. W., 2009; McIntosh, J. A. et al., 2010). […] Adding DMSO gave a small increase in rate but shifted the optimum pH, thus a buffer containing 500 mM NaCl and 5% DMSO at pH 8 gave a reaction rate over 50 times greater (FIG. 1C). Under these conditions, about 7% linearized VGAGIGFP (SEQ ID NO: 70) byproduct was observed which can be separated from cyclo[VGAGIGFP] (SEQ ID NO: 70) by HPLC.
Target sequence in this assay (as listed by the source): as above

| Molecule | linearized VGAGIGFP byproduct | reaction rate increase |
| --- | --- | --- |
| B6 | about 7% | over 50 times |

same assay, conditions: NaCl from 150 mM to 500 mM

| Molecule | rate change on increasing sodium chloride |
| --- | --- |
| B6 | greater than an order of magnitude improvement in rate |

same assay, conditions: pH from 8 to 9, 500 mM NaCl

| Molecule | rate change on increasing pH |
| --- | --- |
| B6 | further tripled the rate |
